Test results reported in patent CN112521494A (WUHAN INST OF BIOLOGICAL PRODUCTS CO LTD, dated 2021).

Legend:
[1] = target: SARS-CoV-2刺突S1亚基蛋白(Sino公司，货号:40591-V02H) (SARS-CoV-2, UniProt P0DTC2 16-685)
[2] = target: T1, SARS-CoV-2刺突S1-His重组蛋白(Sino公司，货号:40591-V08H) (SARS-CoV-2, UniProt P0DTC2 16-685); assay: ELISA; S1-His coated at 1.0 μg/mL, goat anti-human IgG-HRP detection
T1 construct: domain: S1; also called S1蛋白; 刺突蛋白S1

B1: 抗SARS-CoV-2的单克隆抗体2B11 (antibody, V domains shown)
VH: EVQLVESGGGLVQPGGSLRLSCAASEITVSSNYMNWVRQAPGKGLEWVSVIYSGGTTYYADSVKGRFTISRDNSENTLYLQMNSLRAEDTAVYYCARDLMEVGGMDVWGQGTTVTVSS
VL: LPVLTQPPSASGTPGQRVTISCSGSSSNVENDNVNWFQQQVPGSTPKLVIYNDRLRPSGVPDRFSGSKSGTSAYLAISGLQSEDEADYYCVAWDASLQSYVFGTGTKVTVL
notes: also called 2B11抗体; 人源抗SARS-CoV-2抗体2B11
In the case of B1, the IC50 [1] is reported as 2.79 nM and the EC50 [2] is reported as 0.051 nM.
